This experiment deals with HLCS-NLuc (Myc-HLCS fused to the N-terminal fragment of firefly luciferase) (human) (UniProt P50747). Put plainly: split reporter.
UniProt P50747, sequence (P50747 whole entry, the tested form may be a part): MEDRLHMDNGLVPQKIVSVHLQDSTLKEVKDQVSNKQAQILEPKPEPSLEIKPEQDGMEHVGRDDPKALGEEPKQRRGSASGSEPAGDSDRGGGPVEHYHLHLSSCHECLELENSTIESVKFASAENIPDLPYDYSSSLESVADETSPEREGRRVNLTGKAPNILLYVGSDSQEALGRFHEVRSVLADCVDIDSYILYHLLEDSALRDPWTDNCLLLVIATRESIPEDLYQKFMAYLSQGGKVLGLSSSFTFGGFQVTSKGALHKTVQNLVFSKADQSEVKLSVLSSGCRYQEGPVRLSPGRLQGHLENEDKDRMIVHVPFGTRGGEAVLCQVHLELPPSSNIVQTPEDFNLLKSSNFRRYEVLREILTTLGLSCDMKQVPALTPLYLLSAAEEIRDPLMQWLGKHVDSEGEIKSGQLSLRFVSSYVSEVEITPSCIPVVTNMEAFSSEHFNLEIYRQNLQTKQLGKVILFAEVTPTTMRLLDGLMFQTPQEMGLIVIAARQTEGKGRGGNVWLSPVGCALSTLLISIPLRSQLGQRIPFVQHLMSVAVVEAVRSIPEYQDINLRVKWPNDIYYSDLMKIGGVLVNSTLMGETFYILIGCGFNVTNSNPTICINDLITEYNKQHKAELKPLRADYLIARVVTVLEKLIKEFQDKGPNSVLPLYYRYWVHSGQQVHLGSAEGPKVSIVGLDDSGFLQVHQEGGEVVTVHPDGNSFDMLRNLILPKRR

In the case of “HDAC1Δ31-CLuc (Myc-HDAC1Δ31 fused to the C-terminal fragment of firefly luciferase) (enzyme)”, the luminescence signal, fold of TP53-NLuc plus CDK3-CLuc (negative control) amounted to 2.4 fold and the luminescence signal, fold of unfused NLuc plus CLuc (background control) stood at 2.9 fold.

Consider “N-CoR-CT-CLuc (Myc-N-CoR C-terminal domain fused to the C-terminal fragment of firefly luciferase) (domain or fragment)”, for which the luminescence signal, fold of TP53-NLuc plus CDK3-CLuc (negative control) came out at 3.1 fold and the luminescence signal, fold of unfused NLuc plus CLuc (background control) was 3.7 fold.
